# Biological target: TIM-1 antigen (soluble extracellular domain of TIM-1, CG57008-02, with a V5-HIS tag) (human) (UniProt Q96D42)
# Assay: BIAcore 2000, mAb captured on goat anti-human surface, TIM-1 antigen injected, 25 C
row,Kd,Binder
1,3.64 nM,"anti-TIM-1 mAb 1.29 (antibody, human IgG2, V domains shown) VH: QVQLQESGPGLVKPSETLSLTCTVSGGSVSSGGYYWSWIRQPPGKGLEWIGFIYYTGSTNYNPSLKSRVSISVDTSKNQFSLKLSSVTAADAAVYYCARDYDWSFHFDYWGQGTLVTVSS VL: DIQMTQSPSSLSASIGDRVTITCRASQGIRNDLGWYQQKPGKAPKRLIYAASSLQSGVPSRFSGSGSGTEFTLTISSLQPEDFATYYCLQHNSYPLTFGGGTKVEIKR"
2,2.78 nM,"anti-TIM-1 mAb 1.37 (antibody, human IgG2, V domains shown) VH: EVQLVESGGGLVQPGGSLRLSCAASGFTFTNYWMSWVRQAPGKGLEWVANIQQDGSEKYYVDSVRGRFTISRDNAKNSLYLQMNSLRAEDSAVYYCARWDYWGQGTLVTVSS VL: DIVMTQTPLSSTVILGQPASISCRSSQSLVHSDGNTYLNWLQQRPGQPPRLLIYMISNRFSGVPDRFSGSGAGTDFTLKISRVEAEDVGVYYCMQATESPQTFGQGTKVEIKR"

# The remaining lines, values behind:
row,Binder,Kd
1,"anti-TIM-1 mAb 2.61 (antibody, human IgG4, V domains shown) VH: QVQLVEAGGGVVQPGRSLRLSCAASGFTFRSYGMHWVRQAPGKGLKWVAVIWYDGSNKYYTDSVKGRFTISRDNSKNTLYLQMNSLRAEDTAVYYCVRDYYDNSRHHWGFDYWGQGTLVTVSS VL: DIQMTQSPSSRCASVGDRVTITCRASQGIRNDLAWYQQKPGKAPKRLIYAASSLQSGVPSRFSGSRSGTEFTLTISSLQPEDFAAYYCLQHNSYPPSFGQGTKLEIKR",1 nM
2,"anti-TIM-1 mAb 2.70 (antibody, V domains shown) VH: QVQLVESGGGVVQPGRSLRLSCAASGFIFSRYGMHWVRQAPGKGLKWVAVIWYDGSNKLYADSVKGRFTISRDNSKNTLYLQMNSLRAEDTAVYYCARDYYDNSRHHWGFDYWGQGTLVTVSS VL: DIVMTQTPLSLPVTPGEPASISCRSSRSLLDSDDGNTYLDWYLQKPGQSPQLLIYTLSYRASGVPDRFSGSGSGTDFTLKISRVEAEDVGVYYCMQRVEFPITFGQGTRLEIKR",2.71 nM

# — US20050084449A1
